Assays:
[1] = molecular target: T1, Amino acid residues 26-45 of human TNFR2 (human); assay: ELISA on plate-coated linear peptide S03933; Affinity cell of this row is '1+'
T1 sequence (peptide): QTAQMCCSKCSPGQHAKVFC

[2] = molecular target: T2, Amino acid residues 130-149 of human TNFR2 (human); assay: ELISA on plate-coated linear peptide S04076
T2 peptide: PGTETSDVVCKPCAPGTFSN
Description: (§1) ELISA was also used to determine linear epitopes present on the extracellular surface of TNFR2. Linear peptides corresponding to various regions within the TNFR2 primary sequence were purchased from GenScript (Piscataway, NJ), diluted in coating buffer and placed on Immulon 4HBX Flat Bottom Microtiter Plates (Thermo Scientific) at a concentration of 1 µg/well. Primary TNFR2 agonistic antibodies (0.1 µg/well) were incubated with substrates. Secondary antibodies against rodent IgG were used to detect the primary antibodies. Absorbance was measured using the SPECTRAMAX^{®} 190 Absorbance Plate Reader and analyzed with SoftMax Pro 6.3 (Molecular Devices).

[3] = molecular target: T3, Amino acid residues 154-174 of human TNFR2 (human); assay: ELISA on plate-coated linear peptide S04079
T3 construct: The printed range 154-174 spans 21 residues, but the printed peptide has 20
T3 peptide: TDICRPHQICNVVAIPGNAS
Description: as §1

[4] = molecular target: T4, Amino acid residues 50-69 of human TNFR2 (human); assay: ELISA, immobilised TNFR2 peptide fragments, TNFRAG1 as primary antibody
T4 peptide: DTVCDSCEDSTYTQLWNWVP
Description: (§2) The binding of antibody to each of the synthesized peptides was tested in an ELISA format. Surface-immobilized peptide arrays were incubated with primary antibody solution (overnight at 4° C.). After washing, the peptide arrays were incubated with a 1/1000 dilution of an appropriate antibody peroxidase conjugate (SBA) for one hour at 25° C. After washing, the peroxidase substrate 2,2′-azino-di-3- ethylbenzthiazoline sulfonate (ABTS) and 2 µl/ml of 3 percent H₂O₂ were added. After one hour, the color development was measured. The color development was quantified with a charge coupled device (CCD) - camera and an image processing system. The values obtained from the CCD camera range from 0 to 3000 mAU, similar to a standard 96-well plate ELISA-reader.
(§3) Affinity is reported qualitatively using a categorical four-point scale, such that an affinity score of “0” denotes lowest affinity and an affinity score of “4” denotes highest affinity.

[5] = molecular target: T5, Amino acid residues 9-28 of human TNFR2 (human); assay: as above
T5 peptide: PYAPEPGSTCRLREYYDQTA
Description: as §2, §3

[6] = molecular target: T6, Amino acid residues 122-141 of human TNFR2 (human); assay: as above
T6 peptide: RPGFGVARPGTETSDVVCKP
Description: as §2, §3

[7] = molecular target: T7, Amino acid residues 162-181 of human TNFR2 (human); assay: as above
T7 peptide: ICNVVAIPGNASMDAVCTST
Description: as §2, §3

[8] = molecular target: T3, Amino acid residues 154-174 of human …; assay: as above
Description: as §2, §3

[9] = molecular target: T8, Amino acid residues 1-20 of human TNFR2 (human); assay: as above
T8 peptide: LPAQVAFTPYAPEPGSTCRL
Description: as §2, §3

[10] = molecular target: T9, Amino acid residues 58-77 of human TNFR2 (human); assay: as above
T9 peptide: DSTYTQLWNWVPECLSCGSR
Description: as §2, §3

[11] = molecular target: T10, Amino acid residues 114-133 of human TNFR2 (human); assay: as above
T10 peptide: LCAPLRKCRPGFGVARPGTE
Description: as §2, §3

[12] = molecular target: T11, Amino acid residues 90-109 of human TNFR2 (human); assay: as above
T11 peptide: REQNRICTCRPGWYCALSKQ
Description: as §2, §3

[13] = molecular target: T12, Amino acid residues 17-36 of human TNFR2 (human); assay: as above
T12 peptide: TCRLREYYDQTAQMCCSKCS
Description: as §2, §3

[14] = molecular target: T13, Amino acid residues 42-61 of human TNFR2 (human); assay: as above
T13 peptide: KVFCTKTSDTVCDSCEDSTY
Description: as §2, §3

[15] = molecular target: T14, Amino acid residues 146-165 of human TNFR2 (human); assay: as above
T14 peptide: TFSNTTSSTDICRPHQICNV
Description: as §2, §3

[16] = molecular target: T2, Amino acid residues 130-149 of human …; assay: as above
Description: as §2, §3

[17] = molecular target: T15, Amino acid residues 170-189 of human TNFR2 (human); assay: as above
T15 peptide: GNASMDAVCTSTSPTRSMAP
Description: as §2, §3

[18] = molecular target: T16, Amino acid residues 138-157 of human TNFR2 (human); assay: as above
T16 peptide: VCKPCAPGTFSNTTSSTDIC
Description: as §2, §3

[19] = molecular target: Full-length human TNFR2 (human) (UniProt P20333); assay: ELISA, immobilised human TNFR2 / TNFR2 peptide fragments, TNFRAG1 as primary antibody
[20] = molecular target: T1, Amino acid residues 26-45 of human TNFR2 (human); assay: ELISA on TNFR2 peptide, antibody alone
[21] = molecular target: T17, Amino acid residues 98-117 of human TNFR2 (human); assay: ELISA on TNFR2 peptide, antibody alone
T17 sequence (peptide): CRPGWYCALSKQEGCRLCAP

[22] = molecular target: T18, Amino acid residues 34-53 of human TNFR2 (human); assay: ELISA on TNFR2 peptide, antibody alone
T18 sequence (peptide): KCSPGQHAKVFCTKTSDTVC

[23] = molecular target: T19, Amino acid residues 108-127 of human TNFR2 (human); assay: ELISA on plate-coated linear peptide S03935; Affinity cell of this row is '2+-'
T19 sequence (peptide): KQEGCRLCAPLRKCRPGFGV

[24] = molecular target: T8, Amino acid residues 1-20 of human TNFR2; assay: ELISA on plate-coated linear peptide S04062
Description: as §1

[25] = molecular target: T17, Amino acid residues 98-117 of human TNFR2 (human); assay: ELISA on plate-coated linear peptide S04072; Affinity cell of this row is '1+'
[26] = molecular target: T20, Amino acid residues 66-85 of human TNFR2 (human); assay: ELISA on TNFR2 peptide, antibody alone; Affinity cell of this row is '-'
T20 sequence (peptide): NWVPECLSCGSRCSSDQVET

[27] = molecular target: T21, Amino acid residues 82-101 of human TNFR2 (human); assay: as above
T21 sequence (peptide): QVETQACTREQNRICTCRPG

[28] = molecular target: T22, Amino acid residues 106-125 of human TNFR2 (human); assay: as above
T22 sequence (peptide): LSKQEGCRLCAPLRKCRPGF

[29] = molecular target: T23, Amino acid residues 74-93 of human TNFR2 (human); assay: as above
T23 sequence (peptide): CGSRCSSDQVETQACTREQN

[30] = molecular target: T10, Amino acid residues 114-133 of human …; assay: ELISA on plate-coated linear peptide S04074
Description: as §1

[31] = molecular target: T14, Amino acid residues 146-165 of human …; assay: ELISA on plate-coated linear peptide S04078
Description: as §1

[32] = molecular target: T16, Amino acid residues 138-157 of human …; assay: ELISA on plate-coated linear peptide S04077
Description: as §1

[33] = molecular target: T7, Amino acid residues 162-181 of human …; assay: ELISA on plate-coated linear peptide S04080
Description: as §1

[34] = molecular target: T22, Amino acid residues 106-125 of human TNFR2 (human); assay: ELISA on plate-coated linear peptide S04073; Affinity cell of this row is '2+-'
[35] = molecular target: T1, Amino acid residues 26-45 of human TNFR2 (human); assay: ELISA on plate-coated linear peptide S03933
[36] = molecular target: T20, Amino acid residues 66-85 of human TNFR2 (human); assay: ELISA, immobilised TNFR2 peptide fragments, TNFRAG1 as primary antibody
[37] = molecular target: T1, Amino acid residues 26-45 of human TNFR2 (human); assay: as above
[38] = molecular target: T21, Amino acid residues 82-101 of human TNFR2 (human); assay: as above
[39] = molecular target: T19, Amino acid residues 108-127 of human TNFR2 (human); assay: as above
[40] = molecular target: T22, Amino acid residues 106-125 of human TNFR2 (human); assay: as above
[41] = molecular target: T17, Amino acid residues 98-117 of human TNFR2 (human); assay: as above
[42] = molecular target: T18, Amino acid residues 34-53 of human TNFR2 (human); assay: as above
[43] = molecular target: T23, Amino acid residues 74-93 of human TNFR2 (human); assay: as above
[44] = molecular target: T4, Amino acid residues 50-69 of human TNFR2; assay: ELISA on TNFR2 peptide, antibody alone
Description: as §1

[45] = molecular target: T5, Amino acid residues 9-28 of human TNFR2; assay: ELISA on TNFR2 peptide, antibody alone
Description: as §1

[46] = molecular target: T9, Amino acid residues 58-77 of human TNFR2; assay: ELISA on TNFR2 peptide, antibody alone
Description: as §1

[47] = molecular target: T12, Amino acid residues 17-36 of human TNFR2; assay: ELISA on TNFR2 peptide, antibody alone
Description: as §1

[48] = molecular target: T13, Amino acid residues 42-61 of human TNFR2; assay: ELISA on TNFR2 peptide, antibody alone
Description: as §1

[49] = molecular target: T15, Amino acid residues 170-189 of human …; assay: ELISA on TNFR2 peptide, antibody alone
Description: as §1

[50] = molecular target: T19, Amino acid residues 108-127 of human TNFR2 (human); assay: ELISA on plate-coated linear peptide S03935
[51] = molecular target: T6, Amino acid residues 122-141 of human …; assay: ELISA on plate-coated linear peptide S04075
Description: as §1

[52] = molecular target: T17, Amino acid residues 98-117 of human TNFR2 (human); assay: ELISA on plate-coated linear peptide S04072
[53] = molecular target: T22, Amino acid residues 106-125 of human TNFR2 (human); assay: ELISA on plate-coated linear peptide S04073

- Reading [1]: 0
- binding result [2]: no binding
- binding result [3]: no binding
- Affinity Score [4]: 0 affinity score (0 lowest to 4 highest)
- Affinity Score [5]: 0 affinity score (0 lowest to 4 highest)
- Affinity Score [6]: 0 affinity score (0 lowest to 4 highest)
- Affinity Score [7]: 0 affinity score (0 lowest to 4 highest)
- Affinity Score [8]: 0 affinity score (0 lowest to 4 highest)
- Affinity Score [9]: 0 affinity score (0 lowest to 4 highest)
- Affinity Score [10]: 0 affinity score (0 lowest to 4 highest)
- Affinity Score [11]: 0 affinity score (0 lowest to 4 highest)
- Affinity Score [12]: 2 affinity score (0 lowest to 4 highest)
- Affinity Score [13]: 0 affinity score (0 lowest to 4 highest)
- Affinity Score [14]: 0 affinity score (0 lowest to 4 highest)
- Affinity Score [15]: 0 affinity score (0 lowest to 4 highest)
- Affinity Score [16]: 0 affinity score (0 lowest to 4 highest)
- Affinity Score [17]: 0 affinity score (0 lowest to 4 highest)
- Affinity Score [18]: 0 affinity score (0 lowest to 4 highest)
- Affinity Score (affinity score (0 lowest to 4 highest)) [19]: 4
- Affinity [20]: 1
- Reading [20]: 0.1
- Affinity [21]: 1
- Reading [21]: 2
- Affinity [22]: 1
- Reading [23]: 0
- binding result [24]: no binding
- Reading [25]: 0
- Reading [26]: 2
- Reading [27]: 2
- Reading [28]: 2
- Reading [29]: 2
- binding result [30]: no binding
- binding result [31]: no binding
- binding result [32]: no binding
- binding result [33]: no binding
- Reading [34]: 0
- Affinity [35]: 1
- Affinity Score (affinity score (0 lowest to 4 highest)) [36]: 0
- Affinity Score (affinity score (0 lowest to 4 highest)) [37]: 1
- Affinity Score (affinity score (0 lowest to 4 highest)) [38]: 0
- Affinity Score (affinity score (0 lowest to 4 highest)) [39]: 2
- Affinity Score (affinity score (0 lowest to 4 highest)) [40]: 2
- Affinity Score (affinity score (0 lowest to 4 highest)) [41]: 1
- Affinity Score (affinity score (0 lowest to 4 highest)) [42]: 0
- Affinity Score (affinity score (0 lowest to 4 highest)) [43]: 0
- binding result [44]: no binding
- binding result [45]: no binding
- binding result [46]: no binding
- binding result [47]: no binding
- binding result [48]: no binding
- binding result [49]: no binding
- Affinity [50]: 2
- binding result [51]: no binding
- Affinity [52]: 1
- Affinity [53]: 2
B1: agonistic TNFR2 antibody TNFRAG1 (antibody, V domains shown)
VH: EVQLQQFGAELVKPGASVKISCKASGYTFTDYNIDWVKQSHGKSLEWIGDINPNYDSTSYSQKFRGKATLTVDKSSSTAYMELRSLTSEDTAVYYCARGNSWYFDVWGAGTTVTVSS
VL: QIVLTQSPALMSASPGEKVTMTCSASSSVRYMYWYQQKPRSSPKPWIYLTSNLASGVPARFSGSGSGTSYSLTISSMEAEDAATYYCQQWSSNPLTFGAGTKLELK
notes: It was detected with secondary antibodies against rodent IgG; also called monoclonal TNFR2 antibody TNFRAG1; TNFR2 agonist antibody

From patent US20230174659A1 (GENERAL HOSPITAL, published 2023)
